Assays:
[1] = target: HBV Cp149-WT (wild type HBV core protein assembly domain, N-terminal first 149 residues), dimer (Hepatitis B virus, adyw strain); assay: SEC of capsid and dimer after 72 h assembly at 100 mM NaCl, 23° C.; self-association of Cp149 dimers
[2] = target: HBV Cp149-WT (wild type HBV core protein assembly domain, N-terminal first 149 residues), dimer (Hepatitis B virus, adyw strain); assay: SEC of assembly reactions, 100 mM NaCl, 23° C.
[3] = target: HBV Cp149-WT (wild type HBV core protein assembly domain, N-terminal first 149 residues), dimer (Hepatitis B virus, adyw strain); assay: SEC of capsid and dimer after 72 h assembly at 100 mM NaCl, 23° C.; mean equilibrium dimer concentration
[4] = target: HBV wild type core protein expressed in Huh7 cells (subtype ayw) (Hepatitis B virus, subtype ayw) (UniProt P03146); assay: cell-based or functional assay
[5] = target: the molecule itself; assay: SEC of assembly reactions, 100 mM NaCl, 72 h, 23° C.; 100 mM NaCl, 72 h, 23° C.; ratio of WT to V124W pseudo-critical concentration
[6] = target: the molecule itself; assay: thermodynamic calculation from SEC, 23° C., 100 mM NaCl; 100 mM NaCl, 23° C.; value in the text, which differs from Table 3
[7] = target: the molecule itself; assay: SEC of capsid and dimer after 72 h assembly at 100 mM NaCl, 23° C.; self-association of Cp149-V124W dimers; 100 mM NaCl, 23° C., SEC after 72 h equilibration; Table 3 value

“HBV Cp149-WT (wild type HBV core protein assembly domain, N-terminal first 149 residues), dimer” was tested. Which ΔGcontact [1] did it give?
The ΔGcontact was -2.74 kcal/mol.

What about the pseudo-critical concentration [2] of the same molecule?
Its pseudo-critical concentration is 43.6 µM.

And the KD, apparent [3]?
The KD, apparent was 43.3 µM.

For “HBV V124W core protein expressed in Huh7 cells (subtype ayw) (from UniProt P03146 1-183)”, which dlDNA yield, Southern blot of encapsidated DNA, WT:V124W = 1:1 co-transfection in Huh7 cells [4] is on record?
The dlDNA yield, Southern blot of encapsidated DNA, WT:V124W = 1:1 co-transfection in Huh7 cells was 23 % of WT.

And the rcDNA yield, Southern blot of encapsidated DNA, WT:V124W = 1:1 co-transfection in Huh7 cells [4]?
Its rcDNA yield, Southern blot of encapsidated DNA, WT:V124W = 1:1 co-transfection in Huh7 cells is 8 % of WT.

What about the ssDNA yield, Southern blot of encapsidated DNA, WT:V124W = 1:1 co-transfection in Huh7 cells [4] of the same molecule?
Its ssDNA yield, Southern blot of encapsidated DNA, WT:V124W = 1:1 co-transfection in Huh7 cells is 37 % of WT.

What about the total DNA yield, Southern blot of encapsidated DNA, WT:V124W = 1:1 co-transfection in Huh7 cells [4] of the same molecule?
The total DNA yield, Southern blot of encapsidated DNA, WT:V124W = 1:1 co-transfection in Huh7 cells was 31 % of WT.

B1: HBV Cp149-V124W (core protein assembly domain with V124W), dimer (other)
chain: MDIDPYKEFGATVELLSFLPSDFFPSVRDLLDTAAALYRDALESPEHCSPHHTALRQAILCWGDLMTLATWVGTNLEDPASRDLVVSYVNTNVGLKFRQLLWFHISCLTFGRETVLEYLVSFGWWIRTPPAYRPPNAPILSTLPETTVV
notes: also called HBV Cpdominant 1; Cpdominant 1
Which “fold difference of pseudo-critical concentration against WT” value [5] does the source give for B1 here?
The value was 40 fold.

What about the ΔGcont [6] of the same molecule?
Its ΔGcont is -3.73 kcal/mol.

What about the ΔGcontact [7] of the same molecule?
Its ΔGcontact is -3.84 kcal/mol.

— patent US20140148381A1 (INDIANA UNIVERSITY RESEARCH AND TECHNOLOGY, published 2014)
